The record followed here is patent US6472178.

The term IC50 denotes the point on the concentration scale where inhibition reaches its midpoint.

The target in experiment [1] is T1, rat CNTF receptor on rat superior cervical ganglia (SCG) neurons (rat, UniProt Q08406 23-342).
T1 construct: whole, on cells; Native neurons; also called rat receptor
T1 sequence (looked up): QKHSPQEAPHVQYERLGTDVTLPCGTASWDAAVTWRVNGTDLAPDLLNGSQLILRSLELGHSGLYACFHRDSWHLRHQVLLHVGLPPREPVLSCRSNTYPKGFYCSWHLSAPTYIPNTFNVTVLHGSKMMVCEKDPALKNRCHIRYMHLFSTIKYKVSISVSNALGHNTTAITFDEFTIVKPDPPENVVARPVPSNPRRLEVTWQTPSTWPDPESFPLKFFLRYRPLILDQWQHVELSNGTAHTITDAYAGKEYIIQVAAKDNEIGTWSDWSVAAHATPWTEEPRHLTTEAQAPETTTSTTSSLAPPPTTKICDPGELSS
Nature of the experiment: competition with 125I-rat CNTF on rat SCG neurons. The protocol:
Reactions were incubated for 45 min at 0° C. followed by 15 min at room temperature and terminated by the addition of […] of 0.2 M glycine solution. After 15 min, 0.2 ml PBS containing 0.08% gelatin was also added and the mixture was passed through a Superdex-75 column (Pharmacia) to separate the labelled monomeric CNTF from dimeric and other multimeric derivatives. Percentage of incorporation was typically 20%, as determined by thin layer chromatography and the specific activity was typically around 1,000 Ci/mmole. […] Growth medium consisted of Ham's nutrient mixture F12 with 10% heat-inactivated fetal bovine serum (Hyclone), nerve growth factor (NGF) (100 ng/ml), penicillin (50 U/ml) and streptomycin (50 µg/ml). Cultures were maintained at 37° C. in a humidified 95% air/5% CO_2 atmosphere. Ganglion non-neuronal cells were eliminated by treatment with araC (10 µM) on days 1 and 3 of culture. Cultures were fed 3 times/week and were routinely used for binding assays within 2 weeks.
Binding was performed directly on cell monolayers. Cells in culture wells were washed once with assay buffer consisting of phosphate buffered saline (PBS; pH 7.4), 0.1 mM bacitracin, 1 mM PMSF, 1 µg/ml leupeptin, and 1 mg/ml BSA. […] Non-specific binding was determined in the presence of 1,000-fold excess of unlabelled CNTF. […] Data were analyzed using the […] program (ISI, Philadelphia, Pa.).

For experiment [2], the target named is T2, human CNTF receptor α-component on MG87/CNTFR fibroblasts (human, UniProt P26992 23-342).
T2 construct: whole, on cells; also called CNTFRα; MG87/huCNTFR
T2 sequence (looked up): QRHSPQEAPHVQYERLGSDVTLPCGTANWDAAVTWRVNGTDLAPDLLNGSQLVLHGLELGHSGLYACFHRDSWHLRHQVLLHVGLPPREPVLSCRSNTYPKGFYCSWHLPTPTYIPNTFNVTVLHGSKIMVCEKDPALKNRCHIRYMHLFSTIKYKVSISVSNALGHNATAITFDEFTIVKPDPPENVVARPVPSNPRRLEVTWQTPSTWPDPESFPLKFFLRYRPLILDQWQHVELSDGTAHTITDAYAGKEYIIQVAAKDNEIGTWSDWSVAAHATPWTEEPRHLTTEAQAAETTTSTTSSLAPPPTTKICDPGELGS
Nature of the experiment: competition with 125I-rat CNTF on MG87/CNTFR cells.

B1: recombinant rat CNTF (ciliary neurotrophic factor) (ligand)
chain: MAFAEQTPLTLHRRDLCSRSIWLARKIRSDLTALMESYVKHQGLNKNINLDSVDGVPVASTDRWSEMTEAELRQENLQAYRTFQGMLTKLLEDQRVHFTPTEGDFHQAIHTLMLQVSAFAYQLEELMVLLEQKIPENEADGMPATVGDGGLFEKKLWGLKVLQELSQWTVRSIHDLRVISSHQMGISALESHYGAKDKQM
notes: also called unlabelled rat CNTF
Take B1: the IC50 in experiment [1] was 0.28 nM; in experiment [2], 2.8 nM.
